The term Kd denotes the constant that tells how readily two partners part at equilibrium.

The record followed here is paper PMC3081289 (PLoS ONE, 2011).

The target of the test is T1, human Epidermal Growth Factor Receptor 2 (HER2), extracellular domain (Homo sapiens, UniProt P04626).
T1 construct: HER2 (human Epidermal Growth Factor Receptor 2), extracellular domain (ECD); also called HER2-ECD; HER2 ECD; source: expressed and purified as described [54]
Briefly: SPR; BIAcore 3000; VEGF_(8–109) or HER2 ECD immobilised on CM5 chips; serial dilutions of Fab in PBS with 0.05% Tween20 injected at 30 µl/min; 30°C; 1:1 Langmuir fit; KD from the ratio of kon and koff. The settings on record: both partners purified. A general note: SPR reads the build-up and loss of mass on a sensor chip optically.

B1: bH1 Fab (HER2/VEGF dual specific variant of Herceptin) (Fab, V domains shown)
VH: not shown
VL: DIQMTQSPSSLSASVGDRVTITCRASQDIPRSISGYVAWYQQKPGKAPKLLIYWGSYLYSGVPSRFSGSGSGTDFTLTISSLQPEDFATYYCQQHYTTPPTFGQGTKVEIK
notes: Isolated from a phage library that randomised the light chain CDRs of Herceptin [22]
B1: the Kd is 20 nM.
